Legend:
[1] = molecular target: T1, human PCSK9 (proprotein convertase subtilisin kexin type 9) (human, UniProt Q8NBP7 31-692); experiment: cell-based or functional assay
[2] = molecular target: T1, human PCSK9 (proprotein convertase …); experiment: PCSK9:EGFA FRET, competitor EGFA peptide
[3] = molecular target: T1, human PCSK9 (proprotein convertase …); experiment: BLI (Octet Red), 37 C
Description: (§1) Tips were then immersed into a buffer-only well for observation of Adnectin dissociation. Experiments were performed in a temperature controlled environment at either 25 or 37° C., and the oscillation speed was set at 1500 rpm.
(§2) Binding interaction analysis was performed using proprietary software from Fortebio (Fortebio Data Analysis Software version 6.3.0.36). Global fits were performed for all samples, using a 1:1 binding model. The nature of these global fits constrained all values of concentration to a single pair of association and dissociation rates that were themselves constrained to each other. Affinities (KD), association and dissociation rates were averaged over the various loading levels used in the analysis.

[4] = molecular target: T2, human PCSK9 (proprotein convertase subtilisin kexin type 9) (human, UniProt Q8NBP7 31-692); experiment: FRET, competitor ATI001125
T2 construct: Directly immobilized (SPR ProteOn), biotinylated (BLI), or in solution, depending on the assay; also called hPCSK9
Text: (§3) Table 11 summarizes the overall data from these three FRET assays.

[5] = molecular target: T2, human PCSK9 (proprotein convertase …); experiment: FRET direct binding, anti-his6 antibody
Text: as §3

[6] = molecular target: T2, human PCSK9 (proprotein convertase …); experiment: BLI, biotinylated hPCSK9 on sensor tips
Description: as §1, §2

[7] = molecular target: T2, human PCSK9 (proprotein convertase …); experiment: FRET, competitor EGFA peptide
Text: as §3

[8] = molecular target: cynomolgus monkey PCSK9 (cynomolgus monkey, UniProt A0A7N9D9N8 150-747); experiment: FRET, competitor EGFA peptide
Text: as §3

[9] = molecular target: T2, human PCSK9 (proprotein convertase …); experiment: BLI Octet Red, 37 C
Description: as §1, §2

| LDLR Depletion (% inhibition at 75 nM) [1] [%] | EC50 [2] [nM] | Kd [3] [nM] | IC50 [4] [nM] | EC50 [5] [nM] | Kd [6] [nM] | koff [6] [s⁻¹] | kon [6] [M⁻¹ s⁻¹] | EC50 [7] [nM] | IC50 [7] [nM] | EC50 [8] [nM] | Kd [9] [nM] | Binder |
| --- | --- | --- | --- | --- | --- | --- | --- | --- | --- | --- | --- | --- |
| 89.4 | 1.2 | 1.27 |  |  |  |  |  |  |  |  |  | 2451C06 (designed binder) MGVSDVPRDLEVVAATPTSLLISWDAPAGAASYGYYRITYGETGGNSPVQEFTVPVSKGTATISGLKPGVDYTITVYAVEFPFPGAGYYHRPISINYRTEIDKPSQHHHHHH |
|  |  |  | 0.6 | 4 | 0.656 | 0.000291 | 451000 | 3.8 | 3.8 | 37.2 | 0.656 | 2382B09 (designed binder, Anti-PCSK9 Adnectin, His6-tagged) MGVSDVPRDLEVVAATPTSLLISWDAPADAYGYYRITYGETGGNSPVQEFTVPVSKGTATISGLKPGVDYTITVYAVEFDYPGSGYYHRPISINYRTEIDKPSQHHHHHH |
|  |  |  | 0.4 | 4.6 | 1.4 | 0.000382 | 288000 | 2.6 | 2.6 | 18.2 | 1.4 | 2382H10 (designed binder, Anti-PCSK9 Adnectin, His6-tagged) MGVSDVPRDLEVVAATPTSLLISWDAPAGGYGYYRITYGETGGNSPVQEFTVPVSKGTATISGLKPGVDYTITVYAVEFDFPGSGYYHRPISINYRTEIDKPSQHHHHHH |
|  |  |  | 0.2 | 13.2 | 2.08 | 0.00094 | 448000 | 0.2 | 0.2 | 27.1 | 2.08 | 2451H07 (designed binder, Anti-PCSK9 Adnectin, His6-tagged) MGITDVPRDLEVVAATPTSLLISWNPPDVNYGYYRITYGETGGNSPLQEFTVPVSKGTATISGLKPGVDYTITVYAVEYPYAHAGYYHRPISINYRTEIDKPSQHHHHHH |
|  |  |  | 0.6 | 2.9 | 0.757 | 0.000233 | 349000 | 3.5 | 3.5 | 23.9 | 0.757 | 2382C09 (designed binder, Anti-PCSK9 Adnectin, His6-tagged) MGVSDVPRDLEVVAATPTSLLISWDAPAEGYGYYRITYGETGGNSPVQEFTVPVSKGTATISGLKPGVDYTITVYAVEFDFPGSGYYHRPISINYRTEIDKPSQHHHHHH |
|  |  |  | 0.4 | 3.7 | 0.304 | 0.000164 | 533000 | 2.6 | 2.6 | 13.9 | 0.304 | 2382D09 (designed binder, Anti-PCSK9 Adnectin, His6-tagged) MGVSDVPRDLEVVAATPTSLLISWDAPAEGYGYYRITYGETGGNSPVQEFTVPVSKGTATISGLKPGVDYTITVYAVEFDFPGAGYYHRPISINYRTEIDKPSQHHHHHH |
|  |  |  | 0.3 | 3.6 | 1.86 | 0.000483 | 251000 | 0.9 | 0.9 | 17.9 | 1.86 | 2382H09 (designed binder, Anti-PCSK9 Adnectin, His6-tagged) MGVSDVPRDLEVVAATPTSLLISWDAPAAAYGYYRITYGETGGNSPVQEFTVPSSKGTATISGLKPGVDYTITVYAVEFDFPGSGYYHRPISINYRTEIDKPSQHHHHHH |
|  |  |  | 0.5 | 3.1 | 2.35 | 0.000977 | 394000 | 3 | 3 | 18.1 | 2.35 | 2382B10 (designed binder, Anti-PCSK9 Adnectin, His6-tagged) MGVSDVPRDLEVVAATPTSLLISWDAPADAYGYYRITYGETGGNSPVQEFTVPSSKGTATISGLKPGVDYTITVYAVEYDFPGSGYYHRPISINYRTEIDKPSQHHHHHH |
| 125 | 2.6 | 4.11 |  |  |  |  |  |  |  |  |  | 2381B08 (designed binder) MGVSDVPRDLEVVAATPTSLLISWDAPADGGYGYYRITYGETGGNSPVQEFTVPSSKGTATISGLKPGVDYTITVYAVEYTFPGAGYYHRPISINYRTEIDKPSQHHHHHH |
| 146 | 2.9 | 1.11 |  |  |  |  |  |  |  |  |  | 2382G04 (designed binder) MGVSDVPRDLEVVAATPTSLLISWDAPAGGGYGYYRITYGETGGNSPVQEFTVPSSKGTATISGLKPGVDYTITVYAVEFDFPGAGYYHRPISINYRTEIDKPSQHHHHHH |
| 80.4 | 3.3 | 1.53 |  |  |  |  |  |  |  |  |  | 2382D03 (designed binder) MGVSDVPRDLEVVAATPTSLLISWDAPADEAYGYYRITYGETGGNSPVQEFTVPVSKGTATISGLKPGVDYTITVYAVEFDFPGAGYYHRPISINYRTEIDKPSQHHHHHH |
| 105 | 4 | 2.49 |  |  |  |  |  |  |  |  |  | 2382C05 (designed binder) MGVSDVPRDLEVVAATPTSLLISWDAPADGAYGYYRITYGETGGNSPVQEFTVPVSKGTATISGLKPGVDYTITVYAVEYSFPGAGYYHRPISINYRTEIDKPSQHHHHHH |
| 102 | 3.4 | 0.677 |  |  |  |  |  |  |  |  |  | 2382H03 (designed binder) MGVSDVPRDLEVVAATPTSLLISWDAPAEGAYGYYRITYGETGGNSPVQEFTVPVSKGTATISGLKPGVDYTITVYAVEYPYPFAGYYHRPISINYRTEIDKPSQHHHHHH |
| 94.4 | 3.4 | 3.23 |  |  |  |  |  |  |  |  |  | 2381H09 (designed binder) MGVSDVPRDLEVVAATPTSLLISWDAPAGGGYGYYRITYGETGGNSPVQEFTVPVSKGTATISGLKPGVDYTITVYAVEFDFVGAGYYHRPISINYRTEIDKPSQHHHHHH |
| 133 | 3.1 | 1.12 |  |  |  |  |  |  |  |  |  | 2381G09 (designed binder) MGVSDVPRDLEVVAATPTSLLISWDAPAGDGYGYYRITYGETGGNSPVQEFTVPVSKGTATISGLKPGVDYTITVYAVEFTFPGAGYYHRPISINYRTEIDKPSQHHHHHH |
| 104 | 2.8 | 0.604 |  |  |  |  |  |  |  |  |  | 2382E05 (designed binder) MGVSDVPRDLEVVAATPTSLLISWDAPAEGGYGYYRITYGETGGNSPVQEFTVPVSKGTATISGLKPGVDYTITVYAVEFDFPGAGYYHRPISINYRTEIDKPSQHHHHHH |
| 89.5 | 2.4 | 2.94 |  |  |  |  |  |  |  |  |  | 2382E03 (designed binder) MGVSDVPRDLEVVAATPTSLLISWDAPAGDGYGYYRITYGETGGNSPVQEFTVPVSKGTATISGLKPGVDYTITVYAVEFDFPGAGYYHRPISINYRTEIDKPSQHHHHHH |
| 110 | 4 | 1.59 |  |  |  |  |  |  |  |  |  | 2381F11 (designed binder) MGVSDVPRDLEVVAATPTSLLISWDAPADGGYGYYRITYGETGGNSPVQEFTVPVSKSTATISGLKPGVDYTITVYAVEYTFPGAGYYHRPISINYRTEIDKPSQHHHHHH |
| 88.8 | 0.2 | 2.08 |  |  |  |  |  |  |  |  |  | 2451H07 (designed binder) MGITDVPRDLEVVAATPTSLLISWNPPDVNYGYYRITYGETGGNSPLQEFTVPVSKGTATISGLKPGVDYTITVYAVEYPYAHAGYYHRPISINYRTEIDKPSQHHHHHH |
| 72.2 | 2.4 | 4.54 |  |  |  |  |  |  |  |  |  | 2382F05 (designed binder) MGVSDVPRDLEVVAATPTSLLISWDAPAEAGKHYGYYRITYGETGGNSPVQEFTVPVSKGTATISGLKPGVDYTITVYAVEFDFPGAGYYHRPISINYRTEIDKPSQHHHHHH |
| 119 | 2.9 | 0.237 |  |  |  |  |  |  |  |  |  | 2381D04 (designed binder) MGVSDVPRDLEVVAATPTSLLISWEPFSRLPGGGEYYRITYGETGGNSPLQQFTVPGSKGTATISGLKPGVDYTITVYAVEFPYDHSGYYHRPISINYRTEIDKPSQHHHHHH |
|  |  |  | 0.5 | 3.7 | 0.237 | 6.9e-05 | 266000 | 2.9 | 2.9 | 12 | 0.237 | 2381D04 (designed binder, Anti-PCSK9 Adnectin, His6-tagged) MGVSDVPRDLEVVAATPTSLLISWEPFSRLPGGGEYYRITYGETGGNSPLQQFTVPGSKGTATISGLKPGVDYTITVYAVEFPYDHSGYYHRPISINYRTEIDKPSQHHHHHH |
